# According to US12427163B2, “Anti-VTCN1 antibodies and antibody drug conjugates” (Bluefin BioMedicine, Inc., priority 2017, dated 2025):
# “Also recorded” adds a separate entry of the source.
# T1: mouse VTCN1 protein (Mus musculus, UniProt Q7TSP5)
# T1 construct: His
# T1 sequence (Q7TSP5 25-257): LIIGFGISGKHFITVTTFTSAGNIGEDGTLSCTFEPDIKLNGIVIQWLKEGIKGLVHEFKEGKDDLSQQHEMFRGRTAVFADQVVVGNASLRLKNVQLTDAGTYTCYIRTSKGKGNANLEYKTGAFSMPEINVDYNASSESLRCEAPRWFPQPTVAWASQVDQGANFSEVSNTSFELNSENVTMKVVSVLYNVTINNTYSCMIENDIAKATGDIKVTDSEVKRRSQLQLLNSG
# T2: human VTCN1 protein (Homo sapiens, UniProt Q7Z7D3)
# T2 construct: His
# T2 sequence (Q7Z7D3 25-282): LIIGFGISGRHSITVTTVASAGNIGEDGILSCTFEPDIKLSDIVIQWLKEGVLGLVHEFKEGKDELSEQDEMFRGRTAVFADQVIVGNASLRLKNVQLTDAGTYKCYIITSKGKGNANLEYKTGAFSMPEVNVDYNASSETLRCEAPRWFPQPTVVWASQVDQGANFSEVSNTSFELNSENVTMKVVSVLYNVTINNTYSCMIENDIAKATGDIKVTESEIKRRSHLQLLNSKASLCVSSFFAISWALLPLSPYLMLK
# B1: 6D9: mouse anti-human VTCN1 antibody; VH SEQ ID NO: 113, VL SEQ ID NO: 117; 6D9 represents 6D9-mIgG2a if not otherwise specified (antibody, V domains shown)
# VH: QIQLQQSGPGLVQPSQSLSITCTVSGFSLTSYGVQWIRQSPGKGLEWLGVIWSSGSTDYNAAFLSRLSFSKDNSKSQVFFQMNSLQADDSAIYYCARDVTTIVEGFAHWGQGTLVTVSA
# VL: NIVMTQSPKSMSMSVGERVTLSCKASEKVGTYVSWYQQKPEQSPKLLIYGASNRYTGVPDRFTGSGSATDFTLTISSVQVEDLADYHCGQTYSYPFTFGSGTKLEIK
# notes: mouse anti-human VTCN1 antibody; 6D9 represents 6D9-mIgG2a if not otherwise specified
# Key:
# mouse VTCN1 protein = target: T1, mouse VTCN1 protein; test: Cross-reactivity with mouse VTCN1 protein (method not given); type: binding
# 4T1 tumors = test: 4T1 mouse triple negative breast cancer model in Balb/C mice; type: in vivo; conditions: 6D9 10 mg/kg, gemcitabine 75 mg/kg, i.p., days 5, 8, 12, 14, 16
# Procedure: 6-8 week-old Balb/C mice were injected with 0.1 million of 4T1 cells in the mammary fat pad. On day 5, mice were randomized to 4 treatment groups, PBS, 6D9 (10 mg/kg), Gemcitabine (75 mg/kg), and 6D9 (10 mg/kg) plus gemcitabine (75 mg/kg). All treatments were by intraperitoneal injection and mice received a total of 5 treatments on days 5, 8, 12, 14, and 16.
# The tumors and lymph nodes were harvested from these mice, and cells were dissociated and subjected to immune cell profiling by flow cytometry analysis.
# Hepa1-6 tumors = test: Hepa 1-6 mouse hepatoma tumor model; type: in vivo; conditions: 10 mg/kg ip. twice a week, 7 doses, from day 8
# Procedure: The same proteomics and immunohistochemistry analysis used in Example 1 and Example 12 were also used to analyze tumors harvested from mice subcutaneously injected with Hepa 1-6 mouse hepatoma cells, and these tumors were fount to express VTCN1. To test the efficacy of anti-VTCN1 antibodies in this alternate syngeneic tumor model, 6-8 week old C57BL/6 female mice were injected with 2.5 million Hepa1-6 cells in matrigel. On day 8 after tumor cell implantation, when tumors were 100-200 mm3, tumor-bearing mice were randomized to two treatment groups and received either the isotype control, mIgG2a or the anti-VTCN1 antibody 6D9. Treatment was started on day 8 with mice receiving 10 mg/kg of antibody by ip. injection. Mice were treated at this dose level and route twice a week for a total of 7 doses. Tumor volume and body weight were recorded twice a week.
# KLN205 tumors = test: KLN205 syngeneic mouse lung squamous tumor model in DBA2 mice; type: in vivo; conditions: for KLN205 primary tumor growth, isotype comparison: Example 15, 200 μg (10 mg/kg) i.p. from day 9
# Procedure: For the tumor study. 6-8 week-old female DBA2 mice were implanted subcutaneously in the right flank with 2.5×10^5 mouse lung squamous carcinoma KLN205 cells in 50% matrigel on day 0. Mice were treated with PBS as a vehicle control, a mouse IgG isotype control (10 mg/kg), or anti-VTCN1 6D9 antibody (10 mg/kg) on days 3, 6, 10, 13, 15, 17, 20, and 22 following tumor implantation by intraperitoneal (i.p.) injection. Tumors were measured using an electronic caliper twice a week and tumor volume was calculated using the formula 0.52*length*width*width. Mouse body weight was also measured and recorded.
# 6-8 week-old female DBA2 mice were implanted subcutaneously in the right flank with 2.5×10^5 mouse lung squamous carcinoma cell KLN205 cells in 50% matrigel on day 0. Tumors were measured on day 7 and mice are randomized to 7 treatment groups. The average size was 50 mm^3. The treatment groups were: PBS vehicle control, mIgG2a isotype control. 6D9, anti-mouse PD1 antibody RMP1-14, 6D9+RMP1-14, anti-mouse CTLA-4 antibody 9D9, and 6D9+9D9. The mice were treated on days 8, 11, 13, 15, 18, 20, 22, and 25. All antibodies were 10 mg/kg by i.p.
# To test the activity of the 6D9 and 6D9-mIgG1 antibodies, 6-8 weeks old female DBA2 mice were implanted subcutaneously in the right flank with 0.2 million KLN205 cells in PBS on day 0. Mice were randomized on day 9 into 3 treatment groups, mIgG1 control. 6D9-mIgG1, 6D9-mIgG2a. Mice were treated on days 9, 11, 15, 18, and 22 by i.p. with 200 μg antibodies (10 mg/kg). […] However.
# human VTCN1 protein = target: T2, human VTCN1 protein; test: Affinity to recombinant VTCN1-his by OCTET Red (Protein A biosensors); type: binding; conditions: Table 5
# Procedure: The affinity of antibodies to recombinant VTCN1 was determined on an OCTET™ Red (Pall, ForteBio) instrument. After loading reagents into a 96-well plate, the OCTET™ Red with Protein A-conjugated biosensors was programmed as follows: 30 seconds for baseline #1; 45 seconds to immobilize the antibody; 30 seconds for baseline #2; 300 seconds for association of antibody to recombinant VTCN1-his; and 300 seconds for dissociation of recombinant VTCN1-his from the antibody. Table 5 lists the affinity measured for selected antibodies.
molecule,measurement,setting,value
B1,cross-reactivity with mouse VTCN1 protein,mouse VTCN1 protein,cross-reacts with mouse VTCN1 protein
same,4T1 tumor growth,4T1 tumors,did not show any effect in 4T1 tumor growth
same,Hepa1-6 tumor growth,Hepa1-6 tumors,inhibits primary tumor growth; also recorded: inhibits tumor growth of Hepa1-6 tumors
same,primary tumor growth of KLN205 tumors,"KLN205 tumors; Example 13, 10 mg/kg i.p. from day 3",inhibits primary tumor growth of KLN205 tumors
same,mice surviving at the end of the study on day 36,KLN205 tumors; Example 14,one mouse survived
same,"KLN205 tumor growth, established tumors","KLN205 tumors; Example 14, 10 mg/kg i.p. from day 8",delayed tumor growth
same,mouse survival / time to tumor end point 1500 mm^3,KLN205 tumors; Example 15,prolongs the median time to endpoint irrespective of isotype
same,"KLN205 primary tumor growth, isotype comparison",KLN205 tumors,inhibits primary tumor growth
same,"KLN205 primary tumor growth, isotype comparison",KLN205 tumors; listed as 6D9-mIgG2a,inhibit primary tumor growth
same,Kdis (human),human VTCN1 protein,1.52 × 10^−3
same,Kon (human),human VTCN1 protein,6.19 × 10^5
